{
  "source": "patent US20140057332A1",
  "about": "“GLUCO-OLIGOSACCHARIDE OXIDASES FROM ACREMONIUM STRICTUM AND USES THEREOF” (The Governing Council of the University of Toronto, priority 2011, published 2014)",
  "molecules": {"B1": {"name": "Acremonium strictum gluco-oligosaccharide oxidase GOOX-VN variant 1 Y300A, SEQ ID NO. 6 (Sarocladium strictum; A38V/S388N/Y300A) (protein)", "chain": "NSINACLAAADVEFHEEDSEGWEMDGTAFNLRVDYDPVAIAIPRSTEDIAAAVQCGLDAGVQISAKGGGHSYGSYGFGGEDGHLMLELDRMYRVSVDDDNVATIQGGARLGYTALELLDQGNRALTHGTCPAVGIGGHVLGGGYGFATHTHGLTLDWLVGATVVLADASIVHVSKTENADLFWALRGGGGGFAIVSEFEFNTFEAPEIITTYQVTTTWNRKQHVAGLKALQDWAENTMPRELSMRLEINANALNWEGNYFGNAKDLKKVLQPIMKKAGGKSTISKLVETDWYGQINTYLAGADLNITYNYDVHEYFYANSLTAPRLSDEAISAFVDYKFDNSSVRPGRGWWIQWDFHGGKNSALASHSNDETAYAHRDQLWLWQFYDNIYDYENNTSPYPESGFEFMQGFVATIEDTLPEDRKGKYFNYADTTLDKEEAQKLYWRGNLEKLQAIKAKYDPEDVFGNVVSVEPIA"}},
  "key": {"[1]": {"tested_on": "Acremonium strictum strain T1 gluco-oligosaccharide oxidase GOOX-T1", "settings": "cited from earlier work"}, "[2]": {"target": "T1, Acremonium strictum gluco-oligosaccharide oxidase GOOX-VN variant 1 Y300A, SEQ ID NO. 6 (Sarocladium strictum, UniProt D7PF15, A38V/S388N/Y300A)", "T1 sequence (D7PF15 1-474 A38V/Y300A/S388N)": "B1 chain", "assay": "Enzymatic assay, kinetic analysis (chromogenic H2O2 assay) of Y300A", "settings": "37° C., pH 8.0", "method": "(§1) A chromogenic assay was used to measure hydrogen peroxide production (15). Reactions contained 0.1 mM 4aminoantipyrine (4AA), 1 mM phenol, 0.5 U horseradish peroxidase, 40 mM Tris-HCl (pH 8.0), and different substrates were initiated by adding 0.2 μg of enzymes to the 250 μL reaction mixture. The production of H2O2 was coupled to the oxidation of 4aminoantipyrine by horseradish peroxidase and detected at 500 nm. Reactions were incubated at 37° C. for 15 min to measure the specific activity of GOOX on 10 mM of monosaccharide or 1 mM of oligosaccharide.\n(§2) At least 12 substrate concentrations were included to obtain kinetic parameters for each substrate. Initial rates were obtained by measuring reaction products every 30 s for 15 min at 37° C. and pH 8.0, and kinetic parameters were calculated using the Michaelis-Menten equation (GraphPad Prism5 Software)."}, "[3]": {"target": "T2, Acremonium strictum gluco-oligosaccharide oxidase GOOX-VN variant 2 Y300N, SEQ ID NO. 7 (Sarocladium strictum, UniProt D7PF15, A38V/S388N/Y300N)", "T2 sequence (D7PF15 1-474 A38V/Y300N/S388N)": "B1 chain with A300N", "assay": "Enzymatic assay, kinetic analysis (chromogenic H2O2 assay) of Y300N", "settings": "37° C., pH 8.0", "method": "as §1, §2"}, "[4]": {"tested_on": "Acremonium strictum gluco-oligosaccharide oxidase (GOOX)", "settings": "oxidation of maltose, Fan et al. (2000); cited from earlier work"}, "[5]": {"target": "T3, Acremonium strictum gluco-oligosaccharide oxidase GOOX-VN (type strain CBS 346.70, V38 and N388), SEQ ID NO. 2 (Sarocladium strictum, UniProt D7PF15, A38V/S388N)", "T3 sequence (D7PF15 1-474 A38V/S388N)": "B1 chain with A300Y", "assay": "Enzymatic assay, kinetic analysis (chromogenic H2O2 assay) of GOOX-VN", "settings": "37° C., pH 8.0", "method": "as §1, §2"}, "[6]": {"assay": "Effect of deglycosylation with PNGaseF on enzyme activity", "assay_type": "biochemical", "settings": "10 mM maltose, 15 min at 37° C., duplicate", "procedure": "Approximately 2 μg of purified enzyme was treated with PNGaseF (New England Biolabs) using denaturing and native conditions. Samples that were deglycosylated using denaturing conditions were analysed by SDS PAGE, while samples deglycosylated using native conditions were used to evaluate the impact of glycosylation on enzyme activity. The activity of enzymes was measured on 10 mM maltose at 37° C. for 15 min. (Table 7). N-glycosylation was predicted by NetNGlyc (http://www.cbs.dtu.dk/services/NetNGlyc/) while O-glycosylation was predicted by OGPET (http://ogpet.utep.edu/OGPET/)."}, "[7]": {"assay": "Kinetic analyses, all tested substrates", "assay_type": "biochemical", "settings": "all tested monosaccharides and oligosaccharides", "method": "as §1, §2"}, "[8]": {"assay": "Chromogenic H2O2 oxidase assay on mannose", "method": "as §1\nAn additional eight mutations, identified as Y72F, Y72A, E247A, E314A, W351A, N388S, Q353N, Q384A, were created in GOOX-VN to assess the influence of these residues on the substrate selectivity of GOOX-VN. […] The specific activity of each mutant was then measured at 37° C. for 15 min using 10 mM mono-sugars and 1 mM oligosaccharides as performed for Y300A, Y300N, and W351F (Table 11)."}, "[9]": {"substrate": "CC(=O)N[C@H]1C(O)O[C@H](CO)[C@@H](O)[C@@H]1O", "assay": "purified protein, by the assay type", "settings": "other: 37° C., pH 8.0", "method": "as §1, §2"}, "[10]": {"substrate": "OC1OC[C@@H](O)[C@H](O)[C@H]1O", "assay": "purified protein, by the assay type", "settings": "other: 37° C., pH 8.0", "method": "as §1, §2"}, "[11]": {"substrate": "OC1OC[C@@H](O[C@@H]2OC[C@@H](O)[C@H](O)[C@H]2O)[C@H](O)[C@H]1O", "assay": "purified protein, by the assay type", "settings": "other: 37° C., pH 8.0", "method": "as §1, §2"}, "[12]": {"substrate": "OC1OC[C@@H](O[C@@H]2OC[C@@H](O[C@@H]3OC[C@@H](O)[C@H](O)[C@H]3O)[C@H](O)[C@H]2O)[C@H](O)[C@H]1O", "assay": "purified protein, by the assay type", "settings": "other: 37° C., pH 8.0", "method": "as §1, §2"}, "[13]": {"substrate": "OC[C@H]1OC(O)[C@H](O)[C@@H](O)[C@@H]1O", "assay": "purified protein, by the assay type", "settings": "other: 37° C., pH 8.0", "method": "as §1, §2"}, "[14]": {"substrate": "OC[C@H]1OC(O)[C@H](O)[C@@H](O)[C@H]1O", "assay": "purified protein, by the assay type", "settings": "other: 37° C., pH 8.0", "method": "as §1, §2"}, "[15]": {"substrate": "OC[C@H]1O[C@@H](O[C@H]2[C@H](O)[C@@H](O)C(O)O[C@@H]2CO)[C@H](O)[C@@H](O)[C@@H]1O", "assay": "purified protein, by the assay type", "settings": "other: 37° C., pH 8.0", "method": "as §1, §2"}, "[16]": {"substrate": "OC[C@H]1O[C@@H](O[C@H]2[C@H](O)[C@@H](O)[C@H](O[C@H]3[C@H](O)[C@@H](O)C(O)O[C@@H]3CO)O[C@@H]2CO)[C@H](O)[C@@H](O)[C@@H]1O", "assay": "purified protein, by the assay type", "settings": "other: 37° C., pH 8.0", "method": "as §1, §2"}, "[17]": {"substrate": "OC[C@H]1O[C@H](O[C@H]2[C@H](O)[C@@H](O)C(O)O[C@@H]2CO)[C@H](O)[C@@H](O)[C@@H]1O", "assay": "purified protein, by the assay type", "settings": "other: 37° C., pH 8.0", "method": "as §1, §2"}, "[18]": {"assay": "Chromogenic H2O2 oxidase assay / kinetic analysis on NAG", "method": "as §1, §2"}, "[19]": {"assay": "Chromogenic H2O2 oxidase assay / kinetic analysis on xylose", "method": "as §1, §2"}, "[20]": {"assay": "Chromogenic H2O2 oxidase assay / kinetic analysis on glucose", "method": "as §1, §2"}, "[21]": {"assay": "Chromogenic H2O2 oxidase assay / kinetic analysis on maltose", "method": "as §1, §2"}, "[22]": {"assay": "Chromogenic H2O2 oxidase assay / kinetic analysis on galactose", "method": "as §1, §2"}, "[23]": {"assay": "Chromogenic H2O2 oxidase assay / kinetic analysis on xylobiose", "method": "as §1, §2"}, "[24]": {"assay": "Chromogenic H2O2 oxidase assay / kinetic analysis on cellobiose", "method": "as §1, §2"}, "[25]": {"assay": "Chromogenic H2O2 oxidase assay / kinetic analysis on xylotriose", "method": "as §1, §2"}, "[26]": {"assay": "Chromogenic H2O2 oxidase assay / kinetic analysis on cellotriose", "method": "as §1, §2"}},
  "note": "Changes are numbered by the printed parent chain. Numbers in names are those of the source.",
  "data": [
    {"molecule": "OC[C@H]1O[C@@H](O[C@H]2[C@H](O)[C@@H](O)[C@H](O[C@H]3[C@H](O)[C@@H](O)C(O)O[C@@H]3CO)O[C@@H]2CO)[C@H](O)[C@@H](O)[C@@H]1O", "note": "(stereo partly shown) [Cellotriose, cellotriose]", "values": [
      {"measurement": "catalytic efficiency (in words)", "setting": "[1]; native GOOX purified from A. strictum T1", "result": "highest"},
      {"measurement": "kcat", "setting": "[2]", "result": "666.9 ± 9.5", "unit": "min⁻¹"},
      {"measurement": "kcat", "setting": "[3]", "result": "599.0 ± 4.9", "unit": "min⁻¹"}
    ]},
    {"molecule": "OC[C@H]1O[C@H](O[C@H]2[C@H](O)[C@@H](O)C(O)O[C@@H]2CO)[C@H](O)[C@@H](O)[C@@H]1O", "note": "(stereo partly shown) [Maltose, maltose]", "values": [
      {"measurement": "kcat", "setting": "[1]; recombinant GOOX-T1", "result": 361, "unit": "min⁻¹"},
      {"measurement": "Km, pH dependence", "setting": "[4]", "result": "highest at pH 9"},
      {"measurement": "kcat", "setting": "[5]", "result": "360.0 ± 5.1", "unit": "min⁻¹"},
      {"measurement": "kcat", "setting": "[5]; listed as maltose", "result": 360.0, "unit": "min⁻¹"}
    ]},
    {"molecule": "B1", "values": [
      {"measurement": "Activity, Deglycosylated", "setting": "[6]; deglycosylated with PNGaseF (native conditions)", "result": 3.9, "unit": "nmol/min"},
      {"measurement": "Activity, Glycosylated", "setting": "[6]; glycosylated enzyme", "result": 4.09, "unit": "nmol/min"},
      {"measurement": "catalytic activity (kcat) relative to GOOX-VN", "setting": "[7]", "result": "approximately two times higher"},
      {"measurement": "activity on mannose (in words)", "setting": "[8]", "result": "low activity"},
      {"measurement": "Specific activity Defined substrate concentration", "setting": "[8]; 10 mM mannose, 37° C., 15 min", "result": 0.11, "unit": "µmol/mg/min"},
      {"measurement": "Km", "setting": "[9]", "result": "92.4 ± 4.65", "unit": "mM"},
      {"measurement": "kcat", "setting": "[9]", "result": "12.8 ± 0.223", "unit": "s⁻¹"},
      {"measurement": "kcat/Km", "setting": "[9]", "result": "138 ± 6.67", "unit": "M⁻¹ s⁻¹"},
      {"measurement": "Km", "setting": "[10]", "result": "51.84 ± 1.90", "unit": "mM"},
      {"measurement": "Km", "setting": "[11]", "result": "5.11 ± 0.15", "unit": "mM"},
      {"measurement": "Km", "setting": "[12]", "result": "3.15 ± 0.11", "unit": "mM"},
      {"measurement": "Km", "setting": "[13]", "result": "8.11 ± 0.40", "unit": "mM"},
      {"measurement": "Km", "setting": "[14]", "result": "96.39 ± 5.15", "unit": "mM"},
      {"measurement": "Km", "setting": "[15]", "result": "0.24 ± 0.02", "unit": "mM"},
      {"measurement": "Km", "setting": "[16]", "result": "0.25 ± 0.02", "unit": "mM"},
      {"measurement": "Km", "setting": "[17]", "result": "11.00 ± 0.53", "unit": "mM"},
      {"measurement": "kcat", "setting": "[17]", "result": "10.4 ± 0.123", "unit": "s⁻¹"},
      {"measurement": "kcat/Km", "setting": "[17]", "result": "947 ± 46.7", "unit": "M⁻¹ s⁻¹"},
      {"measurement": "Specific activity Defined substrate concentration", "setting": "[18]; 10 mM NAG, 37° C., 15 min", "result": 1.1, "unit": "µmol/mg/min"},
      {"measurement": "Specific activity From Vmax", "setting": "[18]; substrate NAG", "result": 12.67, "unit": "µmol/mg/min"},
      {"measurement": "Specific activity Defined substrate concentration", "setting": "[19]; 10 mM xylose, 37° C., 15 min", "result": 1.57, "unit": "µmol/mg/min"},
      {"measurement": "Specific activity From Vmax", "setting": "[19]; substrate xylose", "result": 11.22, "unit": "µmol/mg/min"},
      {"measurement": "Specific activity Defined substrate concentration", "setting": "[20]; 10 mM glucose, 37° C., 15 min", "result": 7.15, "unit": "µmol/mg/min"},
      {"measurement": "Specific activity From Vmax", "setting": "[20]; substrate glucose", "result": 13.09, "unit": "µmol/mg/min"},
      {"measurement": "Specific activity Defined substrate concentration", "setting": "[21]; 1 mM maltose, 37° C., 15 min", "result": 0.85, "unit": "µmol/mg/min"},
      {"measurement": "Specific activity From Vmax", "setting": "[21]; substrate maltose", "result": 10.31, "unit": "µmol/mg/min"},
      {"measurement": "Specific activity Defined substrate concentration", "setting": "[22]; 10 mM galactose, 37° C., 15 min", "result": 1.15, "unit": "µmol/mg/min"},
      {"measurement": "Specific activity From Vmax", "setting": "[22]; substrate galactose", "result": 13.17, "unit": "µmol/mg/min"},
      {"measurement": "Specific activity Defined substrate concentration", "setting": "[23]; 1 mM xylobiose, 37° C., 15 min", "result": 2.10, "unit": "µmol/mg/min"},
      {"measurement": "Specific activity From Vmax", "setting": "[23]; substrate xylobiose", "result": 13.16, "unit": "µmol/mg/min"},
      {"measurement": "Specific activity Defined substrate concentration", "setting": "[24]; 1 mM cellobiose, 37° C., 15 min", "result": 10.72, "unit": "µmol/mg/min"},
      {"measurement": "Specific activity From Vmax", "setting": "[24]; substrate cellobiose", "result": 13.58, "unit": "µmol/mg/min"},
      {"measurement": "Specific activity Defined substrate concentration", "setting": "[25]; 1 mM xylotriose, 37° C., 15 min", "result": 3.22, "unit": "µmol/mg/min"},
      {"measurement": "Specific activity From Vmax", "setting": "[25]; substrate xylotriose", "result": 13.73, "unit": "µmol/mg/min"},
      {"measurement": "Specific activity Defined substrate concentration", "setting": "[26]; 1 mM cellotriose, 37° C., 15 min", "result": 9.03, "unit": "µmol/mg/min"},
      {"measurement": "Specific activity From Vmax", "setting": "[26]; substrate cellotriose", "result": 11.00, "unit": "µmol/mg/min"}
    ]}
  ]
}
